The series “NMR titration” deals with the molecule itself. Description: NMR titration.
The next series deals with GR DBD (UniProt P04150 417-506). Description: fluorescence polarization.

Four molecules from paper PMC5737878 (Nucleic Acids Research, 2017) can be followed below.

B1: Glucocorticoid receptor DNA binding domain (GR DBD, residues 417-506), 15N-labelled (domain or fragment, UniProt P04150 417-506, looked up)
chain: PPKLCLVCSDEASGCHYGVLTCGSCKVFFKRAVEGQHNYLCAGRNDCIIDKIRRKNCPACRYRKCLQAGMNLEARKTKKKIKGIQQATTG
modifications: 15N-labelled
In the case of B1, the binding result in the series “NMR titration” was “binds”.

B2: MMP13 TRE (FP) (dsDNA)
DNA 1: ATAAGTGATGACTCACCATTGCA
DNA 2: TGCAATGGTGAGTCATCACTTAT
In the case of B2, the binding result in the series with GR DBD is on record as “binds”.

B3: VCAM1 TRE (FP) (dsDNA)
DNA 1: TTCCGGCTGACTCATCAAGCG
DNA 2: CGCTTGATGAGTCAGCCGGAA
As to B3, in the series with GR DBD, the binding result is on record as “binds”.

B4: IL1a TRE (FP) (dsDNA)
DNA 1: GAAGAAGACTGACTCTCAGGCTTAAGC
DNA 2: GCTTAAGCCTGAGAGTCAGTCTTCTTC
Consider B4, for which the binding result in the series with GR DBD is “binds”.
